Laboratory results reported in PMC4860004.

Biological target: IRΔβ (human insulin receptor ectodomain construct, (αβ)2 homodimer) (human) (UniProt P06213)
Experiment: crystal structure

## IRΔβ (human insulin receptor ectodomain construct, (αβ)2 homodimer) (from UniProt P06213-2 28-1370)
  stoichiometry N: 2
